How the values were obtained:
Elba1;Elba2;Elba3 [1] = target: T1, Elba1;Elba2;Elba3 (Drosophila melanogaster?;Drosophila …, UniProt Q9VR17;Q9VQD6;Q9VR19 1-363;1-381;1-379, ||); assay: competition; 100-fold excess; EMSA: ~0.1 M KCl, 12.5-250 ug/ml poly(dI-dC):poly(dI-dC), 1/2 hr at room temperature, 4% acrylamide gel, otherwise as Aoki et al. 2008; affinity beads: HBB (10); conditions: protein: ivt;ivt;ivt; tags: none;none;none; copies: 1;1;1; label: none
T1 sequence 1: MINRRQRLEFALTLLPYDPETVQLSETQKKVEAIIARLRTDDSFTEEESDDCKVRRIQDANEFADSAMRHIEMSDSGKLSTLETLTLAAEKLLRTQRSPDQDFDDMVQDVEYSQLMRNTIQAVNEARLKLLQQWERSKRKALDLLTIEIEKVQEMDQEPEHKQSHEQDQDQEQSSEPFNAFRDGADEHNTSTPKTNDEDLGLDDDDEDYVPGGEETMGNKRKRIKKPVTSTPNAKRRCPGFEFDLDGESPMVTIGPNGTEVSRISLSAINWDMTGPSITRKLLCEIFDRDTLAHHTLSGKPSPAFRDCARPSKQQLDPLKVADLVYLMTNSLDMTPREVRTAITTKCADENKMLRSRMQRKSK
T1 sequence 2: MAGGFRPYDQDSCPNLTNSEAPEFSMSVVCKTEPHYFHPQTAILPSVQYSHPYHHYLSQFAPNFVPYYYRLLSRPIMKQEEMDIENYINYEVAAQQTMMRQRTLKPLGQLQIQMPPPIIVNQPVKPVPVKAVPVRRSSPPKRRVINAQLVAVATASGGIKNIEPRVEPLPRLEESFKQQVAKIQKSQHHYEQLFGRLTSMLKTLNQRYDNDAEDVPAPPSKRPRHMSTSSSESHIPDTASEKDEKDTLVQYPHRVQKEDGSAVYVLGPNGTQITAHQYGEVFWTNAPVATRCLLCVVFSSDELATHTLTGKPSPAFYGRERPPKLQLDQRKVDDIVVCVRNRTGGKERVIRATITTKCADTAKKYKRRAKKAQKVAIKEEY
T1 sequence 3: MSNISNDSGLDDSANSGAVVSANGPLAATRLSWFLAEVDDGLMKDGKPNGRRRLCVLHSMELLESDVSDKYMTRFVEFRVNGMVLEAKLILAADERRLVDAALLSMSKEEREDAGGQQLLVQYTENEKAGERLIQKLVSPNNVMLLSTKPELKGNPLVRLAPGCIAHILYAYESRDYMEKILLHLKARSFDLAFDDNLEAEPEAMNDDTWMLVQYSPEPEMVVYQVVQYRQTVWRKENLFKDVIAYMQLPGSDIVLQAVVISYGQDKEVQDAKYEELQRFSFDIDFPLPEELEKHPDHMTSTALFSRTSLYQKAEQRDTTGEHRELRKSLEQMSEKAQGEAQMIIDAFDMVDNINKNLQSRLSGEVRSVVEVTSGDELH

GST-Elba1F;GST-Elba2F = target: T2, GST-Elba1F;GST-Elba2F (Drosophila melanogaster?;Drosophila …, UniProt Q9VR17;Q9VQD6 1-363;1-381, |); assay: EMSA; co-translated; EMSA: ~0.1 M KCl, 12.5-250 ug/ml poly(dI-dC):poly(dI-dC), 1/2 hr at room temperature, 4% acrylamide gel, otherwise as Aoki et al. 2008; affinity beads: HBB (10); conditions: protein: ivt;ivt; tags: N-terminal FLAG and GST;N-terminal FLAG and GST; copies: 1;1
T2 sequence 1: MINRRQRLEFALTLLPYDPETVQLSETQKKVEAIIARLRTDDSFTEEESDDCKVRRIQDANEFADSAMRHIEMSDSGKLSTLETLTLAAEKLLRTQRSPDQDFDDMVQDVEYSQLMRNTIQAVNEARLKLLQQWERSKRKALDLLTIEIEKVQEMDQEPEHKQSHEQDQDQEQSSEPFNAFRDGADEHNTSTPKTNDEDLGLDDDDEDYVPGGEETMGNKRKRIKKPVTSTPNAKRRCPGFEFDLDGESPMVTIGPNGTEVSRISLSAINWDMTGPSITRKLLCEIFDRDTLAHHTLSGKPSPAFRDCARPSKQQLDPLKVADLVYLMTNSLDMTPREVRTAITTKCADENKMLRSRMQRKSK
T2 sequence 2: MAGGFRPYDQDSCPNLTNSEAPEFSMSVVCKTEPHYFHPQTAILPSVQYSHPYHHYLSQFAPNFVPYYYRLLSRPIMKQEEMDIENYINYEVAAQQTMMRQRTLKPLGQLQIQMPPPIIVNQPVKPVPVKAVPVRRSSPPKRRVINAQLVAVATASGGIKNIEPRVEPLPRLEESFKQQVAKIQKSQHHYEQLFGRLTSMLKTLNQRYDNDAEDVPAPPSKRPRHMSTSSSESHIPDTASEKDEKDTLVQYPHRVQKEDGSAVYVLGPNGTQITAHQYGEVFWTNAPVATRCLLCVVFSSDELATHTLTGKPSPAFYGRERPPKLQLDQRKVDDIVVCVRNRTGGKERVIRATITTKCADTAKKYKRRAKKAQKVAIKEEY

[2] = target: T3, GST-Elba1F;GST-Elba2F;FLAG-Elba3F (Drosophila melanogaster?;Drosophila …, UniProt Q9VR17;Q9VQD6;Q9VR19 1-363;1-381;1-379, ||); assay: EMSA; supershift by Elba3; EMSA: ~0.1 M KCl, 12.5-250 ug/ml poly(dI-dC):poly(dI-dC), 1/2 hr at room temperature, 4% acrylamide gel, otherwise as Aoki et al. 2008; affinity beads: HBB (10); conditions: protein: ivt;ivt;ivt; tags: N-terminal FLAG and GST;N-terminal FLAG and GST;N-terminal FLAG; copies: 1;1;1
T3 sequence 1: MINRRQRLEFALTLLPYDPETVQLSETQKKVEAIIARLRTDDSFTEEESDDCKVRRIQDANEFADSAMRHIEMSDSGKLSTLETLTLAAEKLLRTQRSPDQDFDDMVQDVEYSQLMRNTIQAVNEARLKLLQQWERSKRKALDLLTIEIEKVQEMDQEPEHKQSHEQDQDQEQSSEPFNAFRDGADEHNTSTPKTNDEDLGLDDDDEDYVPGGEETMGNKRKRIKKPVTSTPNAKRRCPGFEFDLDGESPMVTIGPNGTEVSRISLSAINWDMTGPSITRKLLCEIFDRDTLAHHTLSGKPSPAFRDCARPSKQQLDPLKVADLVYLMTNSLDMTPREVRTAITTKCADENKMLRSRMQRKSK
T3 sequence 2: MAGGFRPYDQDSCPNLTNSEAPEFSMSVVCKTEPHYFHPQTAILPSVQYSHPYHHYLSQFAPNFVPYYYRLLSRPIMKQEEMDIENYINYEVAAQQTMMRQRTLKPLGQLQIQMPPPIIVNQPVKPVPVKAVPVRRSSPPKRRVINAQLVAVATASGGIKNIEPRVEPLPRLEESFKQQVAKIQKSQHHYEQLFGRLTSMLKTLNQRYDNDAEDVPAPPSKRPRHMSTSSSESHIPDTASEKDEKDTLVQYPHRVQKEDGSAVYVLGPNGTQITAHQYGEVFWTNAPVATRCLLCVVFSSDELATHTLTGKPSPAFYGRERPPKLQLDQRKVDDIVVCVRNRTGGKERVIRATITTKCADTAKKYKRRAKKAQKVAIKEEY
T3 sequence 3: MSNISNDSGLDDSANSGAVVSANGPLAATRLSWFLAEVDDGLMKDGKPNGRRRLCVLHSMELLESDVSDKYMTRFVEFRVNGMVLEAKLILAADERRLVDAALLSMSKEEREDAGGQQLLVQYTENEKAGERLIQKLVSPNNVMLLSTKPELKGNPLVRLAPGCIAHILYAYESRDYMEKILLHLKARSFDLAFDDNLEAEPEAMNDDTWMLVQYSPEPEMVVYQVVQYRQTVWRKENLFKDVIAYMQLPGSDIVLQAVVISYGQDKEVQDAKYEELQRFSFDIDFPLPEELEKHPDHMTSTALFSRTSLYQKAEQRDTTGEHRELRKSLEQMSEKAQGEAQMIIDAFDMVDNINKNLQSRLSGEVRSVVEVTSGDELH

[3] = target: T4, FLAG-Elba1F;FLAG-Elba2F;FLAG-Elba3F (Drosophila melanogaster?;Drosophila …, UniProt Q9VR17;Q9VQD6;Q9VR19 1-363;1-381;1-379, ||); assay: EMSA; EMSA: ~0.1 M KCl, 12.5-250 ug/ml poly(dI-dC):poly(dI-dC), 1/2 hr at room temperature, 4% acrylamide gel, otherwise as Aoki et al. 2008; affinity beads: HBB (10); conditions: protein: ivt;ivt;ivt; tags: N-terminal FLAG;N-terminal FLAG;N-terminal FLAG; copies: 1;1;1
T4 sequence 1: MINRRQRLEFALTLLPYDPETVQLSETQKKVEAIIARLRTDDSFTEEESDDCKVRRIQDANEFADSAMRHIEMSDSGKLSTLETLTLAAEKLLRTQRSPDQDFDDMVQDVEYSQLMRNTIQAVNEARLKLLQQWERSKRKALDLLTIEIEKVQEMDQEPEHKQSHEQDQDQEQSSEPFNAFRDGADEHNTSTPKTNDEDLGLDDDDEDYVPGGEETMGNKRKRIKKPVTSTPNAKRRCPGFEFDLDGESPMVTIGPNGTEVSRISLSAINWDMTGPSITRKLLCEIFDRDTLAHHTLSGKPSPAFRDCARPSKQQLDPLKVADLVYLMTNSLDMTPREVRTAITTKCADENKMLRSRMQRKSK
T4 sequence 2: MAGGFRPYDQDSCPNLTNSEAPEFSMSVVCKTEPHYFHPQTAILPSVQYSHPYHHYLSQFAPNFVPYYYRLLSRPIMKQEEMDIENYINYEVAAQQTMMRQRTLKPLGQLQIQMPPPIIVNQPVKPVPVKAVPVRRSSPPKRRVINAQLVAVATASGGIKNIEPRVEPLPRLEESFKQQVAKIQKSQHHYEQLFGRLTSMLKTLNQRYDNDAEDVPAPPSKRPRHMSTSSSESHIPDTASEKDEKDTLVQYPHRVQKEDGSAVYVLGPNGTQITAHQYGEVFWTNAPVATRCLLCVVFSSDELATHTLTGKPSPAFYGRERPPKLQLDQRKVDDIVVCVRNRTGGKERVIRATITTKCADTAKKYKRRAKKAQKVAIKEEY
T4 sequence 3: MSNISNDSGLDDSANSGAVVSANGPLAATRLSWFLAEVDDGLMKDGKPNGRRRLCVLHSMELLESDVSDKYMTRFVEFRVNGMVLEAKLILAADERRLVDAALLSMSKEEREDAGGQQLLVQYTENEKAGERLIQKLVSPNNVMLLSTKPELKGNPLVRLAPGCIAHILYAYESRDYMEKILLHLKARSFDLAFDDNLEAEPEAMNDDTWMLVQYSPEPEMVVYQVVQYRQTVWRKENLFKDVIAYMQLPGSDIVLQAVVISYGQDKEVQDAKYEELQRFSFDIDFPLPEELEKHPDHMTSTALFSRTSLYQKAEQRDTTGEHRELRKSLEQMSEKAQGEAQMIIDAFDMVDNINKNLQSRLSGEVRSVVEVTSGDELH

Elba1;Elba2;Elba3 [4] = target: T1, Elba1;Elba2;Elba3; assay: as above; conditions: protein: ivt;ivt;ivt; tags: none;none;none; copies: 1;1;1
[5] = target: T5, GST-Elba1 BEN;GST-Elba2 BEN (Drosophila melanogaster?;Drosophila …, UniProt Q9VR17;Q9VQD6 255-363;268-381, |); assay: as above; conditions: protein: ivt;ivt; tags: N-terminal FLAG and GST;N-terminal FLAG and GST; copies: 1;1
T5 sequence 1: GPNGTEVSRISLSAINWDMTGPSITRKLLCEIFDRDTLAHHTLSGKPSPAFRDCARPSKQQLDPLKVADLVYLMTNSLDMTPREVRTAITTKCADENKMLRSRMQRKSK
T5 sequence 2: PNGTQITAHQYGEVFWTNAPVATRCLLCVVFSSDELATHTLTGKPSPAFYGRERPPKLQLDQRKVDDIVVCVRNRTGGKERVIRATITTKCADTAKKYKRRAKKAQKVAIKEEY

B1: M6 oligo (dsDNA)
DNA 1: TGCAGCGCCCAATAAGCAAATGTACGC
DNA 2: GCGTACATTTGCTTATTGGGCGCTGCA
modifications: 3-bp substitution
Elba1;Elba2;Elba3 [1]
  binding result: binds

B2: Elba probe 27 bp (WT) (dsDNA)
DNA 1: TGCAGCGCCCAATAAGCAAATGGCAGC
DNA 2: GCTGCCATTTGCTTATTGGGCGCTGCA
GST-Elba1F;GST-Elba2F
  binding result: binds
[2]
  binding result: binds
[3]
  binding result: binds
Elba1;Elba2;Elba3 [4]
  binding result: binds
[5]
  binding result: no binding

From publication PMC3510454, “Elba, a novel developmentally regulated chromatin boundary factor is a hetero-tripartite DNA binding complex”
